The target in experiment [1] is T1, wild type human EGFR on cells (A431, NHEK, SCC-15, H292) (human, UniProt P00533 25-1210).
T1 construct: Endogenous receptor of human cell lines and keratinocytes said to express wild type EGFR; also called wild type EGFR; wtEGFR
Briefly: FACS binding to normal human epidermal keratinocytes (NHEK), AlexaFluor 488 secondary antibody. Here is the method:
NHEK cells express wild type EGFR.
Cells were harvested when approximately 80% confluent using trypsin, neutralized and washed once in PBS/1% FBS (FACS buffer) then resuspended at 2.5×10⁶ cells/mL in FACS buffer. 100 μL of cells/well were added to a round bottom 96-well plate. 10 μL of a 10x concentration of Ab (final concentrations are listed in the Figures) was added and plate was incubated at 4° C. for one hour. Wells were washed twice with FACS buffer then resuspended in 50 μL of secondary Ab (AlexaFluor 488) diluted in FACS buffer. The plate was incubated at 4° C. for one hour then washed twice with FACS buffer. Cells were then resuspended in 100 μL of PBS/1% formaldehyde and analyzed on a Becton Dickinson LSRII flow cytometer. Data was analyzed using WinList flow cytometry analysis software.
For orientation: Flow cytometry measures light scatter and fluorescence of single cells or particles in a stream.

The target of experiment [2] is T2, EGFRvIII extracellular domain (EGFR (1-29)-G-(298-645)-LESRGPF-Myc-NMHTG-6His) (human, UniProt P00533 298-641).
T2 construct: also called recombinant EGFRvIII; not shown: Myc tag
Briefly: SPR (Biacore T100). A general note: SPR reads the build-up and loss of mass on a sensor chip optically.

In experiment [3] the target is T3, truncated wild type EGFR 1-525 (EGFR1 (1-525)-SRGPF-Myc-NMHTG-6His) (human, UniProt P00533 25-525).
T3 construct: the signal peptide is left out; not shown: Myc tag
Briefly: SPR (Biacore T100).

The target of a further experiment is T4, EGFRvIII on U87MG cells (human, UniProt P00533 298-1210).
T4 construct: also called de2-7 EGFR
Briefly: competition FACS on U87MG de2-7 cells expressing EGFRvIII; competitor Ab1-FITC at 100 nM.

Experiment [4] concerns the target T2, EGFRvIII extracellular domain (EGFR …). Put plainly: SPR (Biacore), antibody captured via anti-human Fc, antigen injected. The method, then:
(§1) Biacore analysis was performed using a Biacore T100 with a CM5 sensory chip, and test antibodies were captured via anti-human Fc antibodies that were amino coupled to the chip using a standard amine coupling kit according to manufacturer's instructions (GE healthcare). Briefly, a CM5 chip surface was activated with EDC/NHS. Goat anti-human Fc specific polyclonal antibody (Thermo Fisher Scientific Inc., Rockford, Ill.) was diluted to 25 μg/mL in 10 mM sodium acetate (pH 4.5) and injected over the activated surface to achieve immobilization. Unreacted moieties on the biosensor surface were blocked with ethanolamine. The Biacore T100 is a surface plasmon resonance based biosensor for detecting, characterizing and quantifying bimolecular interactions, including the interactions between an antibody and its antigen. Antigen was injected at 80 μL/minute for 3 minutes and dissociation was followed for 15 minutes.

The target in experiment [5] is T3, truncated wild type EGFR 1-525 (EGFR1 …). The experiment is described as above. The method, then: as §1
The target in experiment [6] is T2, EGFRvIII extracellular domain (EGFR …). Briefly: SPR (Biacore T100), antibody captured on anti-human Fc, antigen in solution. Here is the method: as §1
In experiment [7] the target is T3, truncated wild type EGFR 1-525 (EGFR1 …). The description is as above. The method, then:
as §1

Experiment [8] concerns the target T1, wild type human EGFR on cells (A431, …). Put plainly: cell-based or functional assay.
Experiment [9] deals with T3, truncated wild type EGFR 1-525 (EGFR1 …). Briefly: SPR (summary of FIG. 6).

Numbering of substitutions follows the chain as printed. Where only a bound is given, the exact number is not on record here.

B1: Antibody G (AbG) (antibody, V domains shown)
VH: EVQLQESGPGLVKPSQTLSLTCTVSGYSISNDFAWNWIRQLPGKGLEWMGYISYKGNTRYQPSLKSRITISRDTSKNQFFLKLNSVTAADTATYYCVTASRGLPYWGQGTLVTVSS
VL: DIQMTQSPSSMSVSVGDRVTITCHSSQDITYNIGWLQQKPGKSFKGLIYHGANLDDGVPSRFSGSGSGTDYTLTISSLQPEDFATYYCVQYDEFPWTFGGGTKLEIK
notes: Full length IgG1
The EC50 (read off the curve) is the concentration needed to bring the measured effect to its halfway point. Low values mean an effect from little substance, high ones a need for much substance. By Kd is commonly meant the equilibrium constant for the complex coming apart. Read a low Kd as a tighter complex. Usually koff stands for the first-order rate constant of dissociation. By kon is commonly meant the rate constant with which the complex forms. A higher kon goes with fast association. In the case of B1, the “EC50 (read off the curve)” value in [1] was about 40 nM. Besides, the “fold increase in binding relative to Ab1” value in experiment [2] was over 47 fold. Moreover, the “fold increase in affinity relative to Ab1” value in experiment [3] came out at 263 fold. Further, the “IC50 (read off the curve)” value with EGFRvIII on U87MG cells was about 20 nM. In addition, in [4], the “KD ratio (Ab1/variant Ab)” value was determined as 47.2, the Kd stood at 0.2 nM, the koff came to 7.44e-05 s⁻¹ and the kon came to 374000 M⁻¹ s⁻¹. Also, in [5], the Kd amounted to 8.6 nM, the koff amounted to 5.88e-05 s⁻¹ and the kon turned out to be 6800 M⁻¹ s⁻¹.

B2: Antibody A (AbA) (antibody, human IgG1, kappa, V domains shown)
VH: B1 VH with N31R, L41P, K55N, L103F
VL: DIQMTQSPSSMSVSVGDRVTITCHSSQDINSNIGWLQQKPGKSFKGLIYHGTNLDDGVPSRFSGSGSGTDYTLTISSLQPEDFATYYCVQYAQFPWTFGGGTKLEIKR
notes: IgG1
Consider B2, for which, in experiment [6], binding was characterised by a dissociation constant (Kd) of 2.3 nM and the “fold increase in affinity versus Ab1” value is 4 fold. Further, in experiment [7], the Kd was found to be 220 nM and the “fold improvement in KD over Ab1” value was found to be 10 fold. The “EC50 (read off the curve)” value in experiment [1] is about 50 nM. The “IC50 (read off the curve)” value in the experiment with EGFRvIII on U87MG cells was about 30 nM. Also, in experiment [4], the “KD ratio (Ab1/variant Ab)” value came out at 4.1, the koff was determined as 0.000173 s⁻¹ and the kon is 76100 M⁻¹ s⁻¹. In experiment [5], the “KD ratio (Ab1/variant Ab)” value was 10.1, the koff came out at 0.000731 s⁻¹ and the kon was determined as 3260 M⁻¹ s⁻¹.

B3: Antibody O (AbO) (antibody, V domains shown)
VH: B1 VH with S30G, N31K, L41P, K55N, L103F
VL: B1 VL with I33V, A52S, D56H, E93D
notes: Full length IgG1; also called Antibody 0
As for B3, the “fold increase in affinity relative to Ab1” value in experiment [2] was determined as 63 fold. Also, in experiment [4], the “KD ratio (Ab1/variant Ab)” value worked out at 35.2, binding was characterised by a dissociation constant (Kd) of 0.27 nM, the koff is 5.22e-05 s⁻¹ and the kon is 196000 M⁻¹ s⁻¹. In experiment [5], the “KD ratio (Ab1/variant Ab)” value is 582, binding was put at a Kd of 3.9 nM, the koff was found to be 2.05e-05 s⁻¹ and the kon turned out to be 5250 M⁻¹ s⁻¹.

B4: Antibody P (AbP) (antibody, V domains shown)
VH: B1 VH with N31H, L41P, K55S, R101W, Y105W
VL: B1 VL with T30N, Y31M, I33V, N53I, D92A
notes: Full length IgG1
B4: the “IC50 of inhibition of EGFR signaling in A431 cells (phospho-EGFR ELISA)” value in [8] is over 40 nM. Moreover, the koff in [9] is under 0.0001 s⁻¹. Moreover, in experiment [1], the “EC50 (read off the curve)” value was about 30 nM. For the same molecule, in the experiment with EGFRvIII on U87MG cells, the “IC50 (read off the curve)” value is about 30 nM. Besides, in experiment [4], the “KD ratio (Ab1/variant Ab)” value was determined as 8.2, the Kd was found to be 1.2 nM, the koff amounted to 0.000135 s⁻¹ and the kon is 117000 M⁻¹ s⁻¹. Moreover, in experiment [5], the “KD ratio (Ab1/variant Ab)” value stood at 106, the Kd worked out at 21 nM, the koff came to 7.67e-05 s⁻¹ and the kon was determined as 3580 M⁻¹ s⁻¹.

B5: Antibody K (AbK) (antibody, V domains shown)
VH: B1 VH with N31R, L41P, K55N, L103F, Y105W
VL: B1 VL with I33V, A52S, D56H, E93D
notes: Full length IgG1
With B5, in [7], the Kd worked out at 1.7 nM and the “fold increase over the KD of Ab1” value was over 1300 fold. Also, the “EC50 (read off the curve)” value in experiment [1] was about 40 nM. Moreover, in the experiment with EGFRvIII on U87MG cells, the “IC50 (read off the curve)” value was about 30 nM. In [4], the “KD ratio (Ab1/variant Ab)” value came out at 15.8, the Kd was 0.6 nM, the koff is 7.75e-05 s⁻¹ and the kon is 130000 M⁻¹ s⁻¹. Besides, in [5], the “KD ratio (Ab1/variant Ab)” value was found to be 1370, the koff is 7.92e-06 s⁻¹ and the kon worked out at 4780 M⁻¹ s⁻¹.

The values above are taken from patent publication US20150337042A1 (AbbVie / Abbott, published 2015).
